How the values were obtained:
Experiment in all cases: ITC
OsChz1-C mutant 2M = OsChz1-C mutant 2M (rice (Oryza sativa))
OsChz1-C mutant 1M = OsChz1-C mutant 1M (rice (Oryza sativa))
OsChz1-C mutant 3M = OsChz1-C mutant 3M (rice (Oryza sativa))

B1: Arabidopsis histone H2A (HTA1)-H2B (HTB1) dimer (complex)
chain 1: MAGRGKTLGSGGAKKATSRSSKAGLQFPVGRIARFLKAGKYAERVGAGAPVYLAAVLEYLAAEVLELAGNAARDNKKTRIVPRHIQLAVRNDEELSKLLGDVTIANGGVMPNIHNLLLPKKAGASKPQED
chain 2: MAPRAEKKPAEKKTAAERPVEENKAAEKAPAEKKPKAGKKLPPKEAGDKKKKRSKKNVETYKIYIFKVLKQVHPDIGISSKAMGIMNSFINDIFEKLAQESSKLARYNKKPTITSREIQTAVRLVLPGELAKHAVSEGTKAVTKFTSS
A Kd (OsChz1-C mutant 2M) of 259 nM, a Kd (OsChz1-C mutant 1M) of 150 nM and a Kd (OsChz1-C mutant 3M) of 146 nM were found for B1 in this work.
